Key:
LRP6E3E4-His = target: T1, LRP6E3E4-His (human, UniProt O75581 631-1244); test: Western blot, purified recombinant fragment
T1 construct: Expressed in E. coli BL21(DE3); Only its E3E4 part stood in the assay; also called E3E4 domain of LRP6; not shown: His tag from pET28b+
T1 sequence: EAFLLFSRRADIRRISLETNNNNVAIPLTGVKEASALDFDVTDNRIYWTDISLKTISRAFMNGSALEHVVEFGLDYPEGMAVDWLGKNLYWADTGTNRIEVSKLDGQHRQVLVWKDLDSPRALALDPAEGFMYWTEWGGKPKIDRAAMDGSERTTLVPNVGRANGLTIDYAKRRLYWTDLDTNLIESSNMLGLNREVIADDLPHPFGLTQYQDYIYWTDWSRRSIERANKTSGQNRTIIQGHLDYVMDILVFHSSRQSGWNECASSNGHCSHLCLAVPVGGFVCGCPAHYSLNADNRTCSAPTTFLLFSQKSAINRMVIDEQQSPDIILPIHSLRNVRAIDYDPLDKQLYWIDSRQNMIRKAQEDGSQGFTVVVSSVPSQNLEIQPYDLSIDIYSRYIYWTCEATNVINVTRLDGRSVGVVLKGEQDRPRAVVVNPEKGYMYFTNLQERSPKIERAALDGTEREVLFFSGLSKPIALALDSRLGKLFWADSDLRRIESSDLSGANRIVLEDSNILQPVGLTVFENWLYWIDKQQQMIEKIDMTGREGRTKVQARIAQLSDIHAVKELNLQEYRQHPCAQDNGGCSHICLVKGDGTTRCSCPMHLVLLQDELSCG
Description: (§1) FIG. 15 illustrates specificity of Anti-LRP6-1 on LRP6 ectodomain. A: HEK-293T cells were separately transfected with plasmids expressing LRP5-Flag and LRP6-Myc, with an empty vector as control. Forty-eight hours post-transfection, total cell lysates (50 μg) were applied for Western blot analysis using Anti-LRP6-1 and an anti-Flag antibody (M2). B: The ability of Anti-LRP6-1 to recognize endogenous LRP6 in different species. Total cell lysates (50 μg) from each cell line were applied for Western blot analysis using Anti-LRP6-1. C: Conditioned media containing LDLRN-Myc, LRP5N-Myc and LRP6N-Myc, and purified recombinant peptides of VLDLR-N-His, LRP6E1E2-His and LRP6E3E4-His were loaded for Western blot analysis using Anti-LRP6-1, anti-His and anti-Myc antibodies. D: Immuno-localization of LRP6 in the retinal cryosections. FITC-labeled Anti-LRP6-1 was used to determine the cellular localization of LRP6 in the retinas of rats (D1-D6) and mice (D7-D12). Non-specific mouse IgG was labeled with FITC and used as a negative control (D1, D4, D7, D10). The sections were stained with FITC-Anti-LRP6-1 (D2, D5, D8, D11). FITC-Anti-LRP6-1 pre-absorbed with 10 μg/ml purified LRP6E1E2-His antigen was used for staining to confirm the specificity of the immunosignals of LRP6 (D3, D6, D9, D12).

[1] = target: T2, LRP5-Flag (human full-length LRP5) (human, UniProt O75197 32-1615); test: Western blot, total lysates (50 ug) of transfected HEK-293T cells
T2 construct: Tested as total lysate of transfected HEK-293T cells in a Western blot; not shown: Flag tag
Description: as §1, with “A: HEK-293T” for “FIG. 15 illustrates specificity of Anti-LRP6-1 on LRP6 ectodomain. A: HEK-293T”, “D9, D12). […]” for “D9, D12).”

[2] = target: endogenous bovine LRP6 (bovine); test: cell-based or functional assay
VLDLR-N-His = target: T3, VLDLR-N-His (human, UniProt P98155 28-797, limits assumed); test: Western blot, recombinant VLDLR-N-His
T3 construct: domain: VLDLR-N; also called very low-density lipoprotein receptor; not shown: 6x histidine tag
Description: as §1

endogenous mouse LRP6 = target: T4, endogenous mouse LRP6 (mouse, UniProt O88572 20-1613); test: Western blot, total cell lysates
T4 construct: whole, on cells; Tested as total cell lysate (Western blot) and in mouse retinal cryosections (immunostaining); also called LRP6 (mouse)
Description: as §1, with “A: HEK-293T” for “FIG. 15 illustrates specificity of Anti-LRP6-1 on LRP6 ectodomain. A: HEK-293T”, “D9, D12). […]” for “D9, D12).”

endogenous human LRP6 = endogenous human LRP6 (human, UniProt O75581 20-1613); test: cell-based or functional assay
Sequence of endogenous human LRP6 (O75581 20-1613 limits assumed): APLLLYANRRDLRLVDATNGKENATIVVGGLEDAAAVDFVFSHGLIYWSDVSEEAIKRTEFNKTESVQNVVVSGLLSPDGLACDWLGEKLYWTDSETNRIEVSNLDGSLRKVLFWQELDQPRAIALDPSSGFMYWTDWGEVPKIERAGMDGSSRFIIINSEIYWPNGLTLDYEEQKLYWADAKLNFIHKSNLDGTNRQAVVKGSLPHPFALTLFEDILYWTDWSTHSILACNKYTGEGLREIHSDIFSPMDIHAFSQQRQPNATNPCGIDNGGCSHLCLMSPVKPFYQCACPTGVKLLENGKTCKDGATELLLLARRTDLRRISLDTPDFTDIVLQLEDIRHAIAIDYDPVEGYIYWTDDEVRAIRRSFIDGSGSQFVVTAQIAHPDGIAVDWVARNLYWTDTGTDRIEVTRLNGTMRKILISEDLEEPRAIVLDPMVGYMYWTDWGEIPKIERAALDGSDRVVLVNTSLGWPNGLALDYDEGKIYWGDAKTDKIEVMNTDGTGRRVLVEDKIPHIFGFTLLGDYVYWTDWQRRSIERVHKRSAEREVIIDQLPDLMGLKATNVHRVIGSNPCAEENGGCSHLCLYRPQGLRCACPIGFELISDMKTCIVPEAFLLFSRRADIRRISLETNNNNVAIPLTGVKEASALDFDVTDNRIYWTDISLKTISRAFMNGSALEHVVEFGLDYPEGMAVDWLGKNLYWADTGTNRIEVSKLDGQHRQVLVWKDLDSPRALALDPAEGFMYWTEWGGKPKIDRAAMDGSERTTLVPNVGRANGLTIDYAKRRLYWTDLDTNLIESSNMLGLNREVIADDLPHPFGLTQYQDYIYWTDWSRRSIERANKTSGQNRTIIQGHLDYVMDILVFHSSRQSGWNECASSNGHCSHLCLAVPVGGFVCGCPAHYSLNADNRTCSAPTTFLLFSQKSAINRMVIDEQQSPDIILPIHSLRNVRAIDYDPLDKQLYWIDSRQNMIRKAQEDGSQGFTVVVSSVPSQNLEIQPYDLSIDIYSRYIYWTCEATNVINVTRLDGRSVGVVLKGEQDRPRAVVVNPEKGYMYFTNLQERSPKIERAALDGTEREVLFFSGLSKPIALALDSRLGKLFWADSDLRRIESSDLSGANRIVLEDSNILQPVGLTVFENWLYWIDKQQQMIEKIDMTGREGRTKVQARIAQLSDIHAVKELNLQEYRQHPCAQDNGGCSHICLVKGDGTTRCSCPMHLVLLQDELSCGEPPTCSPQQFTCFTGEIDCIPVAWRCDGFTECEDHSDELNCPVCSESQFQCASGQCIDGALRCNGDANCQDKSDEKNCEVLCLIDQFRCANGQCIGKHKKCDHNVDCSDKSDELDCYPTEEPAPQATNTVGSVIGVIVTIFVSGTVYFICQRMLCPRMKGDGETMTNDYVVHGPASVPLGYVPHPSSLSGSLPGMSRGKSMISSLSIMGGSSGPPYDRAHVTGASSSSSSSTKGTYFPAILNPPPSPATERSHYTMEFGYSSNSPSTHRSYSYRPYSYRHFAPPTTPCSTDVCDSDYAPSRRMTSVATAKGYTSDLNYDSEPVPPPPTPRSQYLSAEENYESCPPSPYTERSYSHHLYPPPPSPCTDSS

T4 sequence (O88572 20-1613): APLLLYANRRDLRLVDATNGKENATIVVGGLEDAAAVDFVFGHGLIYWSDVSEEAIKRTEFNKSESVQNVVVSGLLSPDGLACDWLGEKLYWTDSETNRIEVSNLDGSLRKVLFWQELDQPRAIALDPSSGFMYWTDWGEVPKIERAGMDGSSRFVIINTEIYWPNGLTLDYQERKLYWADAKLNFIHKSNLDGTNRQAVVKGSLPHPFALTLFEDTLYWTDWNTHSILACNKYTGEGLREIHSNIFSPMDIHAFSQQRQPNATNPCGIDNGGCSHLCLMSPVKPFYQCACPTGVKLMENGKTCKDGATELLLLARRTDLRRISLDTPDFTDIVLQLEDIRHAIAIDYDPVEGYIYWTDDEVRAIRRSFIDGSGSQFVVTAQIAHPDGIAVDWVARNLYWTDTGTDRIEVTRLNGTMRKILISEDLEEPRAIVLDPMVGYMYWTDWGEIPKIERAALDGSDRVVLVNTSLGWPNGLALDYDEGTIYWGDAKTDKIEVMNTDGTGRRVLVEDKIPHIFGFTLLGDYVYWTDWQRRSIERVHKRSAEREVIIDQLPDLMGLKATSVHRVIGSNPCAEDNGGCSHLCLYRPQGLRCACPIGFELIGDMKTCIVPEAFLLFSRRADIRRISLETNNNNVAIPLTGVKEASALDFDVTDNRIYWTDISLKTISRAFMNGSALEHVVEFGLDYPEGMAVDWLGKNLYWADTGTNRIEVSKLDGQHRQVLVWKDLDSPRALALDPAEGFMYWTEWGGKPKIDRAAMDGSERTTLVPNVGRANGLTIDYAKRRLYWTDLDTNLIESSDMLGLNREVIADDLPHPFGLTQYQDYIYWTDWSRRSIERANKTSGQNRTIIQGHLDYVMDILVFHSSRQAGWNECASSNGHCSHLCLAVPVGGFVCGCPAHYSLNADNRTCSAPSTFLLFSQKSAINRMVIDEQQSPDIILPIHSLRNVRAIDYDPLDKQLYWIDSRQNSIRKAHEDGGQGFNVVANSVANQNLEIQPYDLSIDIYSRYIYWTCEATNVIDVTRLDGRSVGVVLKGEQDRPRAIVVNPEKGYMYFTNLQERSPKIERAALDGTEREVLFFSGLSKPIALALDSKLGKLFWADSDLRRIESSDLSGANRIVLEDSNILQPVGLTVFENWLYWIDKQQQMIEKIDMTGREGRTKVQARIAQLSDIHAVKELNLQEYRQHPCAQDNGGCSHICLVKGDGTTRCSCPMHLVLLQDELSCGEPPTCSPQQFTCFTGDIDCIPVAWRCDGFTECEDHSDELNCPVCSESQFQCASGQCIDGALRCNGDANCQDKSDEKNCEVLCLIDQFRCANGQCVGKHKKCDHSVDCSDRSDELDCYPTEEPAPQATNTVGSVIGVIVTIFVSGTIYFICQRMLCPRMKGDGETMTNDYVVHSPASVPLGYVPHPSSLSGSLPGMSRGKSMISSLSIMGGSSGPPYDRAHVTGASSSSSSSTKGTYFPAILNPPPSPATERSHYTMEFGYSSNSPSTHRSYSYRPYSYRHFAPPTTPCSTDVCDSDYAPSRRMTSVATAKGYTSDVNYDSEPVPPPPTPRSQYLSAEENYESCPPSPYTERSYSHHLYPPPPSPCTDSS
T2 sequence (O75197 32-1615 limits assumed): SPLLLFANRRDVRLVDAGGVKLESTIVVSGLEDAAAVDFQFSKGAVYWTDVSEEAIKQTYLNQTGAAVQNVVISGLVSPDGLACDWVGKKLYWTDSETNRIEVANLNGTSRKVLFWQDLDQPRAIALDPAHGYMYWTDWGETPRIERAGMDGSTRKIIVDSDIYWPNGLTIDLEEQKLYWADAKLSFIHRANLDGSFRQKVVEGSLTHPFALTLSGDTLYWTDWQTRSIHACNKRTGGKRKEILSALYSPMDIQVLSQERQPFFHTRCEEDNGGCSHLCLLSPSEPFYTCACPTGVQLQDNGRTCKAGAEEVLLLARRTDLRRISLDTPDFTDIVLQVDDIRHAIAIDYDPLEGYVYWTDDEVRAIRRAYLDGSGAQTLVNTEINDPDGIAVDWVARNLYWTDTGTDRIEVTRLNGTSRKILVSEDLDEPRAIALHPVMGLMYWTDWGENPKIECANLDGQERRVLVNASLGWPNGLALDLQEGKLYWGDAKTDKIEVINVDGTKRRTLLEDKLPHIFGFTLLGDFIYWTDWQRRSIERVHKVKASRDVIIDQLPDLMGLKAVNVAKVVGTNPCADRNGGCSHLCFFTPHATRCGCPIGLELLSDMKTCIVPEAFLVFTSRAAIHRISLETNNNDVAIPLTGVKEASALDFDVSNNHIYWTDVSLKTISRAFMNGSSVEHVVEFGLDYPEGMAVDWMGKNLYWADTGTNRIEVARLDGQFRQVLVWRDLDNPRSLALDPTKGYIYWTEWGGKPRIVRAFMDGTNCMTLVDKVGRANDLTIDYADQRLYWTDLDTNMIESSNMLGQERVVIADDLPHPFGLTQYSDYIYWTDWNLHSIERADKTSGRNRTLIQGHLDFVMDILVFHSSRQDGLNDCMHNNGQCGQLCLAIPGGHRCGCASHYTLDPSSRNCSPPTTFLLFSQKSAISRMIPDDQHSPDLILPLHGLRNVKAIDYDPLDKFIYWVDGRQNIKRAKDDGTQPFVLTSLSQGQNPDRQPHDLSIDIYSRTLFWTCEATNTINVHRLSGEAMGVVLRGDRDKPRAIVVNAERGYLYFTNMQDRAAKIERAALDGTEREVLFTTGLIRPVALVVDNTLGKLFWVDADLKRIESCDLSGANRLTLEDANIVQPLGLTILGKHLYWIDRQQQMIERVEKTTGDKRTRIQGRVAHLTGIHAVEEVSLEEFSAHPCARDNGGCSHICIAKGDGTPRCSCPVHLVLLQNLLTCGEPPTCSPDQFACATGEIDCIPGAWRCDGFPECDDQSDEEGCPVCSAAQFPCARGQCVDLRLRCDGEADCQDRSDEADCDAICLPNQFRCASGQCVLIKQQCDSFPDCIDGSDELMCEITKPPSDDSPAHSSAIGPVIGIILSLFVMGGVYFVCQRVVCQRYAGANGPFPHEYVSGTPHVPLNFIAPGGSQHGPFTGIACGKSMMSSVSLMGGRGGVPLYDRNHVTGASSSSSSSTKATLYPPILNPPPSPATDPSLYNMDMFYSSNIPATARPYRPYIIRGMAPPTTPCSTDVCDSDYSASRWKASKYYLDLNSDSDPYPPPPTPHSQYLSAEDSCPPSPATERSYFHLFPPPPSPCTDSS

binding result (LRP6E3E4-His): no binding
binding result [1]: no binding
IC50 of inhibition of LRP6 phosphorylation (Wnt3a-containing medium, RCEC, Western blot) [2]: 210 to 440 nM
IC50 of inhibition of [14C]thymidine incorporation into RCEC (proliferation, 1% O2) [2]: 500 to 2000 nM
binding result (VLDLR-N-His): no binding
binding result (endogenous mouse LRP6): binds
EC50 of inhibition of Wnt1-induced TOPFLASH activity (hTERT-RPE cells) (endogenous human LRP6): ~20 µg/mL
EC50 of suppression of Wnt3A-induced Luciferase activity (TOPFLASH, hTERT-RPE cells) (endogenous human LRP6): ~20 µg/mL
B1: Anti-LRP6-1 (antibody, mouse IgG2, V domains shown)
VH: EVQLVESGGGLVQSKGSLKLSCAASGFTFNTYAMNWVRQAPGKGLEWVGRIRSKYNNYVTYYGDSVKDRFTISRDDSQSMLYLQMNNLKTEDTAMYYCVRQGRGSYAMDYWGQGTSVTVSS
VL: NIVMTQSPKSMSMSVGERVTLSCKASENVGTYVSWYQQKPEQSPKLLIYGASNRYTGVPDRFIGSGSATDFTLTIRSVQAEDLADYHCGQSYSYPTFGAGTKLELKR
notes: also called mAb2F1; 2F1

Source: patent publication US20120045437A1 (BOARD OF REGENTS OF THE UNIVERSITY OF OKLAHOMA, published 2012)
